Drawing on article PMC4656143, this text covers stoichiometry N for one molecule.

This assay has as its target opto-DN-CREB. Description: thermal relaxation kinetics.

B1: CREB-bZIP (domain or fragment)
chain: ARKREVRLMKNREAARECRRKKKEYVKCLENRVAVLENQNKTLIEELKALKDLYCHKSD
By stoichiometry N is commonly meant the number of molecules, sites or subunits per partner or assembly. As to B1, the stoichiometry N worked out at 1.
